For test [1], the target named is T1, EDIII-DV3 (Dengue virus serotype 3, UniProt Q6YMS3 579-671).
T1 construct: also called EDIII of DV3; envelope glycoprotein domain III of Dengue virus serotype 3
The test is described as follows: SPR. (In general: SPR reads the build-up and loss of mass on a sensor chip optically.)

The target of test [2] is T2, EDIII-DV2 (Dengue virus serotype 2, UniProt P14337 581-673).
T2 construct: also called EDIII of DV2; envelope glycoprotein domain III of Dengue virus serotype 2
The test is described as follows: SPR.

Test [3] deals with T3, EDIII-DV1 (Dengue virus serotype 1, UniProt P17763 581-673).
T3 construct: also called EDIII of DV1; envelope glycoprotein domain III of Dengue virus serotype 1
The test is described as follows: SPR.

Test [4] deals with T4, Dengue virus serotype 1 (DV1), envelope (E) glycoprotein on virus (Dengue virus serotype 1). Nature of the test: cell-based or functional assay.
Test [5] concerns the target T5, Dengue virus serotype 3 (DV3), envelope (E) glycoprotein on virus (Dengue virus serotype 3). The test is described as follows: cell-based or functional assay.
Test [6] has as its target T6, Dengue virus serotype 2 (DV2), envelope (E) glycoprotein on virus (Dengue virus serotype 2). The test is described as follows: cell-based or functional assay.
Test [7] addresses T1, EDIII-DV3. Nature of the test: competition ELISA, equilibrium in solution. A general note: In an ELISA, binding on a coated surface is turned into a signal by an enzyme label.
In test [8] the target is T2, EDIII-DV2. The test is described as follows: competition ELISA, equilibrium in solution.
Test [9] deals with T3, EDIII-DV1. The test is described as follows: competition ELISA, equilibrium in solution.
The target of test [10] is T1, EDIII-DV3. Nature of the test: SPR. This is another data set of the same source.
For test [11], the target named is T3, EDIII-DV1. Nature of the test: SPR. This is another data set of the same source.
Test [12] concerns the target T1, EDIII-DV3. The test is described as follows: competition ELISA.
In test [13] the target is T2, EDIII-DV2. Nature of the test: competition ELISA.
Test [14] deals with T3, EDIII-DV1. Nature of the test: competition ELISA.
Test [15] concerns the target T1, EDIII-DV3. The test is described as follows: indirect ELISA, coated recombinant EDIII.
The target of test [16] is T2, EDIII-DV2. The test is described as follows: indirect ELISA, coated recombinant EDIII.
Test [17] concerns the target T3, EDIII-DV1. Nature of the test: indirect ELISA, coated recombinant EDIII.
In test [18] the target is T7, EDIII-DV4 (Dengue virus serotype 4, UniProt P09866 580-672). The test is described as follows: indirect ELISA, coated recombinant EDIII.
In test [19] the target is T7, EDIII-DV4. Nature of the test: calculated from KD, ΔG = RTln(KD) at 25° C.
In test [20] the target is T7, EDIII-DV4. The test is described as follows: competition ELISA, equilibrium in solution.
Test [21] deals with T2, EDIII-DV2. The test is described as follows: SPR. The source holds these as a separate data set.
Test [22] concerns the target T4, Dengue virus serotype 1 (DV1), envelope …. The test is described as follows: cell-based or functional assay. This is another data set of the same source.
Test [23] addresses Dengue virus serotype 4 (DV4), envelope (E) glycoprotein on virus (Dengue virus serotype 4). The test is described as follows: cell-based or functional assay.
Test [24] addresses T5, Dengue virus serotype 3 (DV3), envelope …. Nature of the test: cell-based or functional assay. The source holds these as a separate data set.
Test [25] addresses T6, Dengue virus serotype 2 (DV2), envelope …. The test is described as follows: cell-based or functional assay. The source holds these as a separate data set.

We go through twelve molecules from patent US20200264176A1 (MIT, published 2020).

Numbering of substitutions follows the chain as printed. Names may count otherwise.

B1: 4E11 WT (antibody, V domains shown)
VH: VKLLEQSGAELVKPGASVRLSCTASGFNIKDTYMSWVKQRPEQGLEWIGRIDPANGDTKYDPKFQGKATITADTSSNTAYLHLSSLTSGDTAVYYCSRGWEGFAYWGQGTLVTVSA
VL: ELVMTQTPASLAVSLGQRATISCRASENVDRYGNSFMHWYQQKAGQPPKLLIYRASNLESGIPARFSGSGSRTDFTLTINPVEADDVATYFCQRSNEVPWTFGGGTKLEIKR
notes: also called wt 4E11; WT 4E11
In general, koff refers to the rate constant with which the complex falls apart. A lower koff goes with a long-lived complex. Broadly, the kon is the rate constant with which the complex forms. The low end stands for slower complex formation, the high end for faster complex formation. Broadly, the Kd is a measure of binding affinity in units of concentration. Low values mean a tighter complex, high ones a looser complex. Take B1: the off-rate constant (koff) with EDIII-DV3 [1] turned out to be 0.0102 s⁻¹; with EDIII-DV2 [2] it was 0.0123 s⁻¹; with EDIII-DV1 [3] it was 0.000551 s⁻¹. Moreover, the kon is 1.34e+06 M⁻¹ s⁻¹ with EDIII-DV3 [1], 1.98e+06 M⁻¹ s⁻¹ with EDIII-DV2 [2] and 1.11e+06 M⁻¹ s⁻¹ with EDIII-DV1 [3]. Moreover, the “IC50 (read off the curve)” value was ~0.06 µg/mL in [4], ~0.5 µg/mL in test [5] and ~0.03 µg/mL in [6]. Further, the Kd with EDIII-DV3 [7] is 21.8 nM; in the test with EDIII-DV2 [8] it was 5.2 nM; in the test with EDIII-DV1 [9], 0.328 nM; with EDIII-DV3 [10], 7.58 nM; with EDIII-DV1 [11] it was 0.5 nM; with EDIII-DV3 [12], 21.8 nM. The Kd with EDIII-DV2 [13] came out at 5.2 nM; in the test with EDIII-DV1 [14], 0.328 nM.

B2: 4E11 VL Ser60Tyr single mutant (antibody, V domains shown)
VH: B1 VH
VL: B1 VL with S60Y
notes: also called S60Y
Take B2: the binding result in the test with EDIII-DV3 [15], with EDIII-DV2 [16], in the test with EDIII-DV1 [17] and with EDIII-DV4 [18] was “binds” each time.

B3: 4E11 VL-N57E single mutant (antibody, V domains shown)
VH: B1 VH
VL: B1 VL with N57E
B3: in the test with EDIII-DV4 [19], the ΔG is -6.92 kcal/mol and the “ΔΔG (ΔGmutant - ΔGWT)” value is -0.93 kcal/mol. In the test with EDIII-DV4 [20], this molecule came in with a Kd of 8410 nM.

B4: 4E5A (antibody, V domains shown)
VH: B1 VH with A54E
VL: B1 VL with R31K, N57E, E59Q, S60W
notes: also called 4E11-5A; quintuple mutant antibody
B4 showed a Kd in the test with EDIII-DV2 [21] of 0.7 nM. Moreover, the FRNT50 came out at 0.19 µg/mL in test [22], 4 µg/mL in [23], 0.77 µg/mL in test [24] and 0.028 µg/mL in test [25].

B5: 4E11 VH Ala55Asp single mutant (antibody, V domains shown)
VH: B1 VH with A54D
VL: B1 VL
notes: also called A55D
Regarding B5, the binding result with EDIII-DV3 [15], with EDIII-DV2 [16], in the test with EDIII-DV1 [17] and with EDIII-DV4 [18] was “binds” throughout.

B6: 4E11 VL-S60W single mutant (antibody, V domains shown)
VH: B1 VH
VL: B1 VL with S60W
For the molecule B6, in the test with EDIII-DV2 [16], the binding result was “binds”.

B7: 4E11 VL Asn57Ser single mutant (antibody, V domains shown)
VH: B1 VH
VL: B1 VL with N57S
Take B7: the binding result in the test with EDIII-DV3 [15], in the test with EDIII-DV2 [16], in the test with EDIII-DV1 [17] and with EDIII-DV4 [18] was “binds” each time.

B8: 4E11 VL Ser60Arg single mutant (antibody, V domains shown)
VH: B1 VH
VL: B1 VL with S60R
notes: also called S60R
For B8, the binding result with EDIII-DV3 [15], with EDIII-DV2 [16], in the test with EDIII-DV1 [17] and in the test with EDIII-DV4 [18] was “binds” each time.

B9: 4E11 VL Glu59Asn single mutant (antibody, V domains shown)
VH: B1 VH
VL: B1 VL with E59N
notes: also called E59N
Regarding B9, the binding result in the test with EDIII-DV3 [15], in the test with EDIII-DV2 [16], with EDIII-DV1 [17] and with EDIII-DV4 [18] was “binds” each time.

B10: 4E11 VL-E59Q single mutant (antibody, V domains shown)
VH: B1 VH
VL: B1 VL with E59Q
Consider B10, for which, in the test with EDIII-DV4 [19], the ΔG was -6.76 kcal/mol and the “ΔΔG (ΔGmutant - ΔGWT)” value is -0.77 kcal/mol. For the same molecule, the Kd in the test with EDIII-DV4 [20] is 11000 nM. Also, the binding result with EDIII-DV2 [16] is reported as “binds”.

B11: 4E11 VL-R31K single mutant (antibody, V domains shown)
VH: B1 VH
VL: B1 VL with R31K
On to B11, for which the binding result with EDIII-DV2 [16] is listed as “binds”.

B12: 4E11 VH-A55E single mutant (antibody, V domains shown)
VH: B1 VH with A54E
VL: B1 VL
Consider B12, for which, in the test with EDIII-DV4 [19], the ΔG was -7.29 kcal/mol and the “ΔΔG (ΔGmutant - ΔGWT)” value is -1.31 kcal/mol. In the test with EDIII-DV4 [20], the Kd was 4440 nM.
